Data from the supplement of paper PMC12042874.
± gives the uncertainty stated by the source.

Assay: amyloid nucleation score (Sup35N fusion, yeast selection) (log enrichment); library NNK1; higher = more nucleation; inactive = no reads after selection
Procedure, shortened: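 In psi-negative yeast, Sup35N fusions carrying peptides of 20 random codons were induced with 100 μM copper sulfate for 24 hours. The cells then grew 7 days at 30°C on medium lacking adenine and uracil, and plasmid inserts from input and output were Illumina-sequenced, excluding sequences with under 100 input reads. Nucleation score is the DiMSum log enrichment of output over input reads, centred on the mode score of non-aggregating sequences.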

Row | Substance | amyloid nucleation score
1 | YFQTRSAKRVCSNQIHVLRW | 3.08 ± 0.12
2 | LPEEDG | inactive
3 | YWIDR | -0.281 ± 0.42
4 | CLSRHLKNGPRMA | 0.495 ± 1
5 | VGDWFSLVENWVVWSFSLIC | -1.89 ± 2.1
6 | KLFLLGAINGQFI | 4.87 ± 0.066
7 | HESLWKFESSFADKNRTVWN | 1.32 ± 0.45
8 | NASSLVRTDCHSMRKESSMR | 0.052 ± 0.4
9 | VSMHNLMQRFSGFMYQCFAG | 1.55 ± 0.2
10 | SMTRIANSMINVFGENPSNS | -0.267 ± 0.69
11 | AWHEGFHCCN | 1.21 ± 0.31
12 | NSVYGTIDYGPHCFVNEGNF | inactive
13 | ALAPPKNSFLLMLALILMLL | 0.093 ± 0.53
14 | AIWVDVTLFTEKADWVSLRR | 2.42 ± 0.28
15 | TRMITWRPFRSSWVFTNLYE | 2.04 ± 0.19
16 | LKPLRKFRSNVNMR | inactive
17 | VLTVRLTMLDCHLAAFSSNA | 1.66 ± 0.16
18 | VARSHYMCI | 0.132 ± 0.38
19 | WIHACK | 0.778 ± 0.45
20 | LKSIPNCFRHFYVNTFS | -0.923 ± 0.49
21 | TYGGYR | -0.343 ± 0.93
22 | TWLTRYLPLNEFRMG | 0.776 ± 0.36
23 | VFWTYVGERKKSLVCRNLGA | -0.189 ± 0.71
24 | YLVSYMWVSLDDLSLYRANG | 0.585 ± 0.52
25 | LPCLSMKVLDTNYNLPCSKN | -0.458 ± 0.32

Row | Substance | amyloid nucleation score
26 | CKRRIQMKLLS | -0.244 ± 0.37
27 | TFEALLTVDSYYSFSLVP | 1.21 ± 0.4
28 | IAYDRRFIDLTRFIAIKFYI | -0.021 ± 0.93
29 | LVRFSSVLCMQHQREV | 0.844 ± 0.55
30 | RWVVSVPISCARACFSG | 0.579 ± 0.73
31 | YYWVFCFFA | 7.47 ± 0.079
32 | CRMRMLRKYVFLD | -0.427 ± 0.61
33 | YAERLIRKWS | 0.06 ± 0.28
34 | CLQMRSVSYVIMRFTGKLTW | 0.693 ± 0.32
35 | YIIYGWVEIF | -1.14 ± 2.1
36 | VLRIDSPLSMILFEVVRCEQ | -0.322 ± 0.31
37 | LLYIRVADSRPGDLRWLSEV | -0.106 ± 0.5
38 | NCFRFCRQLLTAEDDVMCLP | 0.117 ± 0.81
39 | KQFDTSGLNVRRSCNRSRHM | 0.301 ± 0.56
40 | VKSWVPTDVGFEQQSGREVL | 0.093 ± 0.25
41 | ICLYGACYFGVVWSKGGPGK | -0.634 ± 0.32
42 | AYVKLILCLCRNLDWK | 2.98 ± 0.24
43 | KMRKIDAR | 2.63 ± 0.11
44 | TKIVFIVL | 6.02 ± 0.084
45 | DIIIWSSSRHYNVNCKSNSA | 0.55 ± 0.18
46 | CLEDFLDNLFSSGYFKFQLV | inactive
47 | FSMTCYVWLITLAKMTRTFQ | 0.159 ± 0.73
48 | NKNTS | -0.45 ± 0.54
49 | KLQVGSPN | -0.053 ± 1.4
50 | SIVLTIIKHFDYMFQDRGG | 6.06 ± 0.07

Row | Substance | amyloid nucleation score
51 | YGLATFMGKES | -0.104 ± 0.85
52 | PRRHYGLRFGHGHLISVWLR | 0.642 ± 0.41
53 | VYSWNNYGDRKILMLFLTGY | 4.63 ± 0.065
54 | ALVTWWSYHSLMVSGCKVRS | -0.299 ± 0.59
55 | LDNRCKIRMVMMHSPRALRV | 0.893 ± 0.81
56 | RDKLYA | -1.2 ± 1.5
57 | ETRTSTETRPCKLWFYDRM | -0.718 ± 1.2
58 | FLPQAAWCKLYLIKLLNPPL | 1.1 ± 0.98
59 | SSPKTRMVEGVCCYFVGSIY | 0.704 ± 1.2
60 | LIYRVPIDLITNSNSALRCA | -0.018 ± 0.48
61 | VILSARSFMTIHGHYCTYRV | 0.474 ± 0.88
62 | YLPYVNLAG | -1.07 ± 2.4
63 | LTRLSNCVLGGSC | -0.512 ± 0.71
64 | GRLFWVNVTLNLRDMNYSDM | 1.09 ± 0.5
65 | RRTRKGWIMWPGGVDNHGNY | -0.313 ± 1.3
66 | VESTCTNMRCYLGWFIPPF | 0.387 ± 0.2
67 | TTKSLSVSLGGHYYVTRVRR | 0.81 ± 0.83
68 | CSAMPAFWAGHRSGASLHER | 0.017 ± 0.4
69 | SNGMRRLTKVDEHSL | 0.933 ± 0.54
70 | CYASKMFWVVF | 2.06 ± 0.27
71 | YECGFLLSLVRATKLLNSAC | 0.146 ± 0.28
72 | PILSNLHIPMCPENVNGRGS | 0.939 ± 0.33
73 | IYCGNSEF | -0.048 ± 0.79
74 | EYVMIRHAVLIKMFSMLKRV | -0.577 ± 0.45
75 | QSNPSPISNMLNPDCLYKNG | -0.013 ± 0.2

Row | Substance | amyloid nucleation score
76 | LASGRRPSQPGVRRVAKTTG | 0.392 ± 0.34
77 | TYLAVGLMHYEWRGDSVSTD | -0.603 ± 0.32
78 | SFFRNLLYFMIRCGNGYRET | -0.109 ± 0.93
79 | DIFYLCFRVYSEVGLSINVV | -0.529 ± 0.84
80 | MMKSRLDPCDNDNFFGRVSH | -0.257 ± 0.85
81 | ALYPPAGAGLRECRARSLSA | 0.341 ± 0.5
82 | MFLCNVIYCFFLTYIWLTFF | 5.33 ± 0.11
83 | NFYMGETDGACLCASMRDPQ | 2.62 ± 0.14
84 | MSRFLTLMHFERNFV | 0.566 ± 0.42
85 | NSREYDRATGNGGTEGKSVT | -0.45 ± 1.1
86 | FNQINQGCRGCKQRTLVPDI | 0.5 ± 0.67
87 | ESNVWICAPPTDPWAIQTLR | -0.149 ± 0.51
88 | TVVWFTLIFLSLESSCINSL | 1.22 ± 0.2
89 | KRVCLFLGSWNRHHLLGLFG | 1.41 ± 0.84
90 | SLRILRSRS | inactive
91 | VYTSTVMFEHMDRNMLMVKM | 0.166 ± 0.21
92 | SCMTPMYRCSILLLA | -0.306 ± 0.42
93 | LLYYASVLRMKGTECPDGGD | -0.856 ± 2.4
94 | CFIGANPLRNQWMRSTRIVP | 0.28 ± 0.61
95 | EYLSA | 0.403 ± 0.55
96 | TRYVNMIFPPLVCWGDEILW | 0.873 ± 0.77
97 | FLHHFQCKNTSN | inactive
98 | SLIKGSTKLPR | 0.273 ± 0.6
99 | VFLKCFRYTFNNHINFFCVG | 5.96 ± 0.064
100 | NGFRTSTSCVILLPFCKGQK | -0.129 ± 0.57

Row | Substance | amyloid nucleation score
101 | WIVSFMAIRH | 1.51 ± 0.25
102 | FGWLKPR | 0.994 ± 0.49
103 | VGESHCLNADLVSYQHN | -0.374 ± 0.6
104 | HVCKRRFRFRGLTILCRFTL | -0.769 ± 1.1
105 | RCSQVGEFHFGPTDARLMGK | 0.245 ± 0.39
106 | FKVTVRVGSTMSILL | 0.223 ± 0.42
107 | PISMKQVKREEMGFTPAVSS | -0.352 ± 0.95
108 | CDRAIPLSIHTELMYRRSRG | 1.11 ± 0.38
109 | HAKNSRIYSWLFLCSIKWG | 0.396 ± 0.3
110 | SVGDIFSMWSVCSSVNDRCK | 0.415 ± 0.21
111 | RFLIGWFFSFLGCFLKRDSW | -0.571 ± 1.6
112 | LRVSYWQDLAVLYLDSPLGL | -0.358 ± 0.87
113 | TFYGY | -0.487 ± 1.4
114 | TYNVLSTLWRFCVIVLRICC | 0.558 ± 1.1
115 | RMDFMWLVKI | 4.57 ± 0.056
116 | CCLGRR | -0.151 ± 0.52
117 | DGLSFLMEHLCVNTLCKGSR | -0.075 ± 0.34
118 | VITNVRL | -0.089 ± 0.35
119 | WIGNRVSSMFDGTGS | 0.538 ± 0.55
120 | GSNKRHSYTLVLSRNVYPSG | 0.014 ± 0.49
121 | SPNLI | 0.344 ± 0.9
122 | SIFSSWMSWGLII | 0.194 ± 0.39
123 | GVMCIMYNFSHYYLSVVNNR | 7.77 ± 0.083
124 | SATPGRGY | 0.851 ± 0.24
125 | CITANMDENLVSRIRWASEY | 0.462 ± 0.79

Row | Substance | amyloid nucleation score
126 | LYEFRGGTHVGSDFSDVVFV | 1.05 ± 0.47
127 | RRHLGRCTRSKLFNPLR | 0.101 ± 0.54
128 | GISFP | -0.737 ± 0.31
129 | ANISSGKFVRGSCENLARLR | -0.805 ± 0.59
130 | GYLLCAG | 0.549 ± 0.71
131 | SVFYYILNPSEAVHEVSVTS | -0.564 ± 0.48
132 | YNLDSLLIWWVIDC | -0.22 ± 1.1
133 | VFILALVELFGVQWLVVYNW | -0.42 ± 0.47
134 | STIGNVY | -0.586 ± 0.51
135 | DIVHGGYRLWTCKFGDVRYC | -0.162 ± 0.32
136 | YRAKSSEGL | -0.631 ± 0.71
137 | ANGADCYSLSKTEYYYGKTL | -0.129 ± 1.6
138 | RGSPFGVSM | 5.4 ± 0.091
139 | NRLWSIRK | -0.425 ± 0.34
140 | RPILLSSLPIHSERMWSTSL | -0.257 ± 1.4
141 | ILAVLVTYIANTACSWYYVF | 0.052 ± 0.64
142 | FLVMREFMIGCVRAG | 0.186 ± 0.97
143 | GTSTHIIFGMAVSSVRRYHM | 1.33 ± 0.33
144 | DYRYTNCCWQSPKRRGWQSY | 0.967 ± 0.59
145 | MAGLL | -0.546 ± 1.1
146 | MLLRRKNIAGGYMVLEVGLS | -0.1 ± 0.31
147 | VGDCSSVFCVTSFDWVSFYV | 2.89 ± 0.098
148 | FQAGREKSCCAYEVGDGCLV | -1.16 ± 2.4
149 | YYWIYVIPSIFSIF | 5.5 ± 0.088
150 | YKRCAPDRHYG | 1.06 ± 0.58

Row | Substance | amyloid nucleation score
151 | VIILNVVFNLLYEKAFFFR | 0.278 ± 0.68
152 | TLTYPMCGSIG | 1.09 ± 0.47
153 | FASVTTIFFPSPLFFDIRWD | 1.09 ± 0.79
154 | TFVYLCVAHS | 1.07 ± 0.53
155 | SVFNGYQSLVICFLRVSACC | 0.154 ± 1
156 | KKYVRGWGAFLAMQHGGMM | -0.604 ± 0.6
157 | EVVQMVFIFFRCSLVDGKEW | 0.405 ± 0.72
158 | NCVTL | inactive
159 | YSYVVCYNFYKRV | 3.86 ± 0.14
160 | NNEPGLGEK | -0.598 ± 0.92
161 | LSSTDFLGSDVDCFGNCNFL | 3.48 ± 0.13
162 | GVWVGIICKINLKYAFR | 1.23 ± 0.34
163 | LTNNVYSYVWILSSARISIV | 0.87 ± 0.22
164 | TFGGHNVAGASMHGSFGGSL | 0.242 ± 0.3
165 | FKNVHFRNS | -1.69 ± 1.3
166 | LFWLKKNILLDRIHLP | -0.172 ± 0.4
167 | IRPLIFVIGHN | 0.794 ± 0.5
168 | SMRFYYA | 2.97 ± 0.23
169 | YVLTCFAELGGRRGVS | -0.531 ± 1.4
170 | QKNCT | 1.01 ± 0.34
171 | NIPQLVVFKWMLSTC | -0.047 ± 1.1
172 | HVTNSWNSKGLRTSSGDTNV | 0.305 ± 0.4
173 | GGSFKGYSLIV | 0.678 ± 0.66
174 | SLQINMTSSICLVST | 3.35 ± 0.07
175 | YNLDDILPLHIEGRFNRDIA | inactive
